Measured values published in paper PMC7263513 (bioRxiv, 2020).

How the values were obtained:
[1] = target: T1, SARS-CoV-2 receptor binding domain (RBD) (Severe acute respiratory syndrome …, UniProt P0DTC2); experiment: ELISA
[2] = target: T1, SARS-CoV-2 receptor binding domain (RBD); experiment: cell-based or functional assay

| Binder | binding result [1] | IC50 of neutralisation of SARS-CoV-2 pseudovirus (293T_(ACE2) cells) [2] |
| --- | --- | --- |
| C212 (antibody, V domains shown) VH: QVQLVQSGAEVKKPGASVKVSCKASGYTVTGYYIHWVRQAPGQGLEWMGWISPNSGGTNYAQKFQGWVTMTRDMSITTAYMELSRLRSDDTAVYYCARERYFDLGGMDVWGQGTTVTVSS VL: LTQPASVSGSPGQSITISCTGTSSDVGSYNLVSWYQQHPGKAPKLMIYEDSKRPSGVSNRFSGSKSGNTASLTISGLQAEDEADYYCCSYAGSSTRLFGGGTKLTVL | no binding (tested: >1000 ng/ml) |  |
| C153 (antibody, V domains shown) VH: EVQLVESGGGLIQPGGSLRLSCAASGFTVSSNYMSWVRQAPGKGLEWVSVIYSGYSTYYVDSVKGRFTISRDNSKNTLYLQMNSLRAEDTAVYYCARVGGAHSGYDGSFDYWGQGTLVTVSS VL: QSALTQPASVSGSPGQSITISCTGTSSDVGSYNLVSWYQQHPGKAPKLMIYEGSKRPSGVSNRFSGSKSGNTASLTISGLQAEDEADYYCCSYAGSSTWVFGGGTKLTVL |  | 0.0707 µg/mL |
| C208 (antibody, V domains shown) VH: EVQLVQSGAEVKKPGESLKISCKGSGYSFTSYWIGWVRQMPGKGLEWMGIIYPGDSDTRYSPSFQGQVTISADKSISTAYLKWSSLKASDSAMYYCARGPNLQNWFDPWGQGTLVTVSS VL: EIVLTQSPGTLSLSPGERATLSCRASQSVSGSYLAWYQQRPGQAPRLLIYGASSRATGIPDRFSGSGSGTDFTLTISRLEPEDFAVYYCQQYGSSLTFGGGTKVEIK | no binding (tested: >1000 ng/ml) |  |
| C148 (antibody, V domains shown) VH: EVQLVESGGGLVQPGGSQRLSCAASGFTVSSNYMSWIRQAPGKGLEWVSVIYSGGSAYYVDSVKGRFTISRDNSKNTLYLQMNSLRPEDTAVYYCARIANYMDVWGKGTTVTVSS VL: EIVMTQSPATLSVSPGERATLSCRASQSVSSHLAWYQQKPGQAPRLLIYGASTRATGIPTRFSGSGSGTEFTLTISSLQSEDFAVYYCQQYNNWPPLTFGGGTKVEIK |  | > 1 µg/mL |
| C216 (antibody, V domains shown) VH: EVQLVESGGGLVQPGGSLRLSCAASGFTFSSYDMHWVRQATGKGLEWVSAIGTAGDTYYPDSVKGRFTISRENAKNSLYLQMNSLRAGDTAVYYCARDRGSSGWYGWYFDLWGRGTLVTVSS VL: not shown |  | > 1 µg/mL |
| C204 (antibody, V domains shown) VH: EVQLLESGGGLEQPGGSLRLSCAASGFTFSTYAMSWVRQAPGKGLEWVSAISGSGAGTFYADSVKGRFTISRDNSKNTLYLQMNSLRAEDTAVYYCARESDCGSTSCYQVGWFDPWGQGTLVTVSS VL: not shown |  | > 1 µg/mL |
| C215 (antibody, V domains shown) VH: EVQLLESGGGLVQPGGSLRLSCAASGFTFSSYAMSWVRQAPGKGLEWVSAITDSGDGTFYADSVKGRFTISRDNSKNTLYLQMNSLRAEDTAVYYCASEEDYSNYVGWFDPWGQGTLVTVSS VL: not shown |  | > 1 µg/mL |
| C154 (antibody, V domains shown) VH: QVQLVESGGGVVQPGRSLRLSCAASGFTFSRYGMHWVRQAPGKGLEWVAVMSYDGSSKYYADSVKGRFTISRDNSKNTLCLQMNSLRAEDTAVYYCAKQAGPYCSGGSCYSAPFDYWGQGTLVTVSS VL: DIQMTQSPSSLSASVGDRVTITCQASQGISNYLNWYQQKPGKAPKLLIYDASNLETGVPSRFSGSGSGTDFTFTISSLQPEDIATYYCQQYDNLPITFGQGTRLEIK |  | 0.435 µg/mL |
| C202 (antibody, V domains shown) VH: EVQLVESGGGLVQPGGSLRLSCAASGFTVSSNYMSWVRQAPGKGLEWVSLIYSGGSTYYADSVKGRFTISRDNSKNTLYLQMNSLRAEDTAVYYCARDTLGRGGDYWGQGTLVTVSS VL: DIQLTQSPSSLSASVGDRVTITCQASQDISNYLNWYQQKPGKAPKLLIYDASNLETGVPSRFSGSGSGTDFTFTISSLQPEDIATYYCQQYDNLPRSFGQGTKLEIK |  | > 1 µg/mL |
| C146 (antibody, V domains shown) VH: EVQLVESGGGLVKPGGSLRLSCAASGLTFTAYRMNWVRQAPGKGLEWLSSISNTNGDIYYADSVKGRFTISRDNAKNSLYLQMNSLRADDTAVYYCARDVASNYAYFDLWGQGTLVTVSS VL: QSALTQPASVSGSPGQSITISCTGTSSDIGVYNYISWSQQHPGKAPKVMIYDVTNRPSGVSNRFSGSKSGNTASLTISGLQAEDEADYYCSSYRGSSTPYVFGTGTKVTVL | no binding (tested: >1000 ng/ml) |  |
| C155 (antibody, V domains shown) VH: EVQLVESGGGLIQPGGSLRLSCAASGFIVSSNYMSWVRQAPGKGLEWVSVIYSGGSTFYADSVKGRFTISRDNSKNTLYLQMNSLRAEDTAVYYCARDFGEFYFDYWGQGTLVTVSS VL: EIVMTQSPATLSVSPGERATLSCRASQSVSSNLAWYQQKPGQAPRLLIYGASTRATAIPARFSGSGSGTEFTLTISSLQSEDFAVYYCQQYNNWPRTFGQGTKVEIK |  | 0.011 µg/mL |
| C211 (antibody, V domains shown) VH: EVQLVESGGGLVQPGGSLRLSCAASEFTVSSNYMSWVRQAPGKGLEWVSVIYSGGSTFYADSVKGRFTISRDNSKNTLYLQMNSLRPEDTAVYYCARDYGDFYFDFWGQGTLVTVSS VL: EIVMTQSPATLSVSPGERATLSCRASQSVSSNLAWYQQKPGQGPRLLIYGASTRATGIPARFSGSGSGTEFTLTISSLQSEDFAVYYCQQYNNWPRTFGQGTKVEIK |  | 0.0128 µg/mL |
| C210 (antibody, V domains shown) VH: EVQLVESGGGLIQPGGSLRLSCAASGFTVSSNYMSWVRQAPGKGLEWVSVIYSGGSTFYADSVKGRFTFSRDNSKNTLYLQMNSLRAEDTAVYYCARDLMAYGMDVWGQGTTVTVSS VL: DIQLTQSPSFLSASVGDRVTITCRASQGISSYLAWYQQKPGKAPKLLIYAASTLQSGVPSRFSGSGSGTEFTLTISSLQPEDFATYYCQQLNSYPQGTFGGGTKVEIK |  | 0.0507 µg/mL |
| C145 (antibody, V domains shown) VH: EVQLVESGGGLIQPGGSLRLSCAASGFSVSSNYMSWVRQAPGKGLEWVSVIYSGGSTYYADSVKGRFTISRDNSKNTLYLQMNSLRAEDTAVYYCAREGEVEGYYDFWSGYSRDRYYFDYWGQGTLVTVSS VL: QSALTQPASVSGSPGQSITISCTGTSSDVGGYNYVSWYQQHPGKAPKLMIYDVSNRPSGVSNRFSGSKSGNTASLTISGLQAEDEADYYCSSYTSSTTRVFGTGTRVTVL |  | 0.00304 µg/mL |
| C150 (antibody, V domains shown) VH: EVQLVESGGGLVQPGGSLRLSCVASGFTFSSYWMHWVRQVPGKGPVWVSHINSEGSSTNYADSVRGRFTISRDNAKDTLYLQMNNLRAEDTAVYYCARPTAVAAAGNYFYYYGMDVWGQGTTVTVSS VL: QSALTQPASVSGSPGQSITISCTGTSSDVGYYNFVSWYQQHPGKAPKLMIYEVSNRPSGVSNRFSGSKSGNTASLIISGLQAEDEADYYCSSYRSSSTLVFGGGTKLTVL |  | > 1 µg/mL |
| C164 (antibody, V domains shown) VH: EVQLVESGGGLVQPGGSLRLSCAASGFSVSTKYMTWVRQAPGKGLEWVSVLYSGGSDYYADSVKGRFTISRDNSKNALYLQMNSLRVEDTGVYYCARDSSEVRDHPGHPGRSVGAFDIWGQGTMVTVSS VL: QSALTQPASVSGSPGQSITISCTGTSNDVGSYTLVSWYQQYPGKAPKLLIFEVTKRSSGISNRFSGSKSGNTASLTISGLQGEDEADYYCCSYAGASTFVFGGGTKLTVL |  | 0.239 µg/mL |
| C151 (antibody, V domains shown) VH: EVQLVESGGGLVKPGGSLRLSCAASGFTFSSYNMNWVRQAPGKGLEWVSCISSSSSYIYYADSVKGRFTISRDNAKNSLYLQMNSLRAEDTAVYYCARERGYDGGKTPPFLGGQGTLVTVSS VL: NFMLTQPHSVSESPGKTVTISCTGSSGSIASNYVQWYQQRPGSAPTTVIYEDNQRPSGVPDRFSGSIDSSSNSASLTISGLKTEDEADYYCQSYDSSNYWVFGGGTKLTVL |  | 0.0318 µg/mL |
| C156 (antibody, V domains shown) VH: QVQLVESGGGVVQPGRSLRLSCAASGFTFSNYGMHWVRQAPGKGLEWVAVISYDGNNKYYADSVKGRFTISRDNSKNTLYLQMNSLRAEDTAVYYCAKDPFPLAVAGTGYFDYWGQGTLVTVSS VL: SYELTQPPSVSVAPGQTARISCGGNNIGSKNVHWYQQKPGQAPVLVVYDDSDRPSGIPERFSGSNSGNTATLTISRVEAGDEADYYCQVWDSSSDPWVFGGGTKLTVL |  | > 1 µg/mL |
| C165 (antibody, V domains shown) VH: QVQLVQSGAEVKKPGSSVKVSCKASGGTFSSYAINWVRQAPGQGLEWMGRIIPIVGIANYAQKFQGRVTITADKSSSTAYMELSSLRSEDTAVYYCARDLLDPQLDDAFDIWGQGTMVTVSS VL: not shown |  | 0.0408 µg/mL |
| C207 (antibody, V domains shown) VH: not shown VL: EIVLTQSPATLSLSPGERATLSCRASQSVSSYLAWYQQKPGQAPRLLIYDASNRATGIPARFSGSGSGTDFTLTISSLEPEDFAVYYCQQRSNWPRGFGQGTKVEIK |  | 0.159 µg/mL |
| C201 (antibody, V domains shown) VH: EVQLVESGGGLVQPGRSLRLSCAASGFTFDDYAMHWVRQAPGKGLEWVSGISWNSGSIGYADSVKGRFTISRDNAKNSLYLQMNSLRAEDTALYYCVKGVEYSSSSNFDYWGQGTLVTVSS VL: IRMTQSPSSVSASVGDRVTITCRASQGISSWLAWYQQKPGKAPKLLIYVESSLQSGVPSRFSGSGSGTDFTLTISSLQPEDFATYYCQQANSFPLTFGGGTKVEIK |  | > 1 µg/mL |
| C214 (antibody, V domains shown) VH: QVQLVESGGGVVQPGRSLRLSCAASGFTFSSYGMHWVRQAPGKGLEWVAAIWYDGSNKHYADSVKGRFTISRDNSKNTLYLQMNSLRAEDTAVYYCARDVGRVTTWFDPWGQGTLVTVSS VL: not shown |  | > 1 µg/mL |
